Laboratory results: patent US20200095589, “ENGINEERED DCAS9 WITH REDUCED TOXICITY AND ITS USE IN GENETIC CIRCUITS” (Massachusetts Institute of Technology, published 2020)

Biological target: dCas9*_HNH-L88 (ZFP fusion) (Streptococcus pyogenes / synthetic)
Experiment: cell_activity; E. coli; maximum reached at optimal 6 bp spacer; about a third of unmodified dCas9
Details: dCas9(R1335K), HNH deleted, 88 aa linker, C-terminal Zif268TS3
Procedure: A reporter system was developed to evaluate the impact of these modifications on the ability for dCas9 to repress the targeted promoter (FIGS. 13A-13F). The expression of the sgRNA and dCas9 are controlled using IPTG- and aTc-inducible promoters, respectively. All of these components are integrated into a single p15A plasmid backbone. The fold-repression is measured as the fluorescence from the output promoter in the absence of sgRNA inducer (0 mM IPTG), divided by the fluorescence when the sgRNA is expressed (1 mM IPTG). When the R1335K mutation is made (dCas9*), this completely abolishes repression as expected (FIG. 1C).
The ability for a zinc finger protein (ZFP) to recover nuclease activity was first tested. To this end, a variant of dCas9* described previously was built, where Zif268^TS3 is fused to the C-terminal end of dCas9* via a 58 amino acid linker (Bolukbasi M. F., et al., Nat. Methods, 2015 December; 12(12): 1150-56). The corresponding 12 bp operator recognized by Zif268^Ts3 was then placed upstream of the promoter, separated from the −35 position by a spacer (all promoter variants described are provided in TABLE 3). The orientation of the operator (forward and reverse) was initially tested with the forward yielding higher repression as previously observed (Bolukbasi M. F., et al., Nat. Methods, 2015 December; 12(12): 1150-56). […]

B1: sgRNA9 ; pZFP_S6 promoter (ssRNA ; dsDNA)
RNA: AUAAUACCCGUGUGACCCGUGUUUUAGAGCUAGAAAUAGCAAGUUAAAAUAAGGCUAGUCCGUUAUCAACUUGAAAAAGUGGCACCGAGUCGGUGCUUUUUUU
DNA 1: TCCGAATGACATGCGTCTCCGGTGTTGGAGCGACAGCCTTTACACCAACGGGTCACACGGGTATTATGCTAGC
DNA 2: GCTAGCATAATACCCGTGTGACCCGTTGGTGTAAAGGCTGTCGCTCCAACACCGGAGACGCATGTCATTCGGA
activity: 28 fold repression
